The target of data set [1] is T1, R6-GST (synthetic construct, UniProt P08515 =RRRRRR+1-218, internal_change). Description: ITC; 25 C; n 2.61; Table 1 dG -35.8 kJ/mol would fit about 532 nM (R6/R8 possibly swapped); ITC: 50 mM phosphate pH 7.6, 207 mM NaCl, 25 C; pull-down: AS1 buffer (composition not given), 4 C, or ARGI buffer (50 mM Tris-HCl, 300 mM NaCl, 5 mM EDTA, 0.01% Tween 20, pH 7.5). To be noted: protein: recombinant; tags: N-terminal R6 (CPP tag under study); chain copies: 2; label: 5'-biotin (pull-down); four mfold structures predicted.

A further data set concerns the target Tat49-57-PCNA (human, UniProt P12004 =MRKKRRQRRRGGGGGGHPW+1-261, internal_change). Description: pull-down; AS1 buffer; ITC: 50 mM phosphate pH 7.6, 207 mM NaCl, 25 C; pull-down: AS1 buffer (composition not given), 4 C, or ARGI buffer (50 mM Tris-HCl, 300 mM NaCl, 5 mM EDTA, 0.01% Tween 20, pH 7.5). To be noted: protein: recombinant; tags: N-terminal Tat49-57; chain copies: 3; label: 5'-biotin (pull-down).

For data set [2], the target named is T1, R6-GST. Described as above. Conditions: protein: recombinant; tags: N-terminal R6 (CPP tag under study); chain copies: 2; label: 5'-biotin (pull-down).
Another data set addresses R6-PCNA (human, UniProt P12004 =RRRRRR+1-261, internal_change). Described as above. Conditions: protein: recombinant; tags: N-terminal R6; chain copies: 3; label: 5'-biotin (pull-down).

Sequence of R6-PCNA (P12004 other isoform, or with tags, fused parts or gaps): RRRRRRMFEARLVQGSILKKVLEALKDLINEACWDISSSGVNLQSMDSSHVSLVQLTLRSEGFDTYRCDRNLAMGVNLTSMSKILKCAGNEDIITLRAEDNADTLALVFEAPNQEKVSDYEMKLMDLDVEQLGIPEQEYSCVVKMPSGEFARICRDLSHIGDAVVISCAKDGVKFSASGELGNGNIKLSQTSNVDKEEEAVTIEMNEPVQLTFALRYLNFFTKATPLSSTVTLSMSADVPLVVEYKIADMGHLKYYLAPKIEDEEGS
Sequence of Tat49-57-PCNA (P12004 other isoform, or with tags, fused parts or gaps): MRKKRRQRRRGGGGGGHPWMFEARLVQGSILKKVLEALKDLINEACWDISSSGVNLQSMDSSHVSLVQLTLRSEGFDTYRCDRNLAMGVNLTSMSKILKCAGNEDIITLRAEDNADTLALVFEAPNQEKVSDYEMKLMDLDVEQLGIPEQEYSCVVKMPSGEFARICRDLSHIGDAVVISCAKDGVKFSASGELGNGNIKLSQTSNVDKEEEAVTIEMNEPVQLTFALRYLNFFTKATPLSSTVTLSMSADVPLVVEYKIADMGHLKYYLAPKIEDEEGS

Broadly, the Kd is a measure of binding affinity in units of concentration. Take CTTTGTAATTGGTTCTGAGTTCCGTTGTGGGAGGAACATG (ssDNA) [AR aptamer (24-10 nt 31-70; 5'/-30 and 3'/-10)]: in the data set with R6-GST [1], the Kd is 943 ± 37 nM.

B1: reference aptamer (ssDNA)
DNA: CATGCTTCCCCAGGGAGATGACTGACTGACTGACTGACTGACTGACTGACTGACTGACTGGAGGAACATGCGTCGCAAAC
Regarding B1, the binding result in the data set with Tat49-57-PCNA, in the data set with R6-GST [2] and with R6-PCNA was “no binding” each time.

B2: 24-10 aptamer full length (ssDNA)
DNA: CATGCTTCCCCAGGGAGATGGACGGCACGTCTTTGTAATTGGTTCTGAGTTCCGTTGTGGGAGGAACATGCGTCGCAAAC
As for B2, the binding result with Tat49-57-PCNA, with R6-GST [2] and with R6-PCNA was “binds” each time.

Source of the values: PMC5453957, “Bartnicki Filip 1”.
